Data on nine molecules can be found in patent US12049656B2, “Process for the modification of a glycoprotein using a glycosyltransferase that is or is derived from a β(1,4)-n-acetylgalactosaminyltransferase” (Synaffix B.V., priority 2015, dated 2024).

For one data set, the target named is β-(1,4)-GalNAcT (Caenorhabditis elegans, UniProt Q9GUM2). Conditions: as donor substrate compared with UDP-GalNAc; cited from earlier work.
The subject of another data set is TnGalNAcT. Put plainly: Transfer of 6-modified GalNAc-UDP derivatives to trimmed brentuximab by TnGalNAcT (mass spectrometric analysis). It is filed as biochemical, Trichoplusia ni. Conditions: sugar nucleotide 5 mM; TnGalNAcT 1.5 mg/mL; trimmed brentuximab 15 mg/mL; 30 °C overnight. As for the experimental part: Bentuximab was trimmed analogues to the trimming of trastuzumab as described in example 6.
Trimmed bentuximab (15 mg/mL) was incubated with 6-amino-6-deoxy-GalNAc-UDP 94 (5 mM) and TnGalNAcT (1.5 mg/mL) in 10 mM MnCl2 and 25 mM Tris-HCl pH 8.0 at 30° C. overnight. A sample of the reaction mixture (2 μL) was incubated for 1 hour at 37° C. with Fabricator™ (1.25 U/μL) in phosphate-buffered saline (PBS) pH 6.6 in a total volume of 10 μL.
Trimmed bentuximab (15 mg/mL) was incubated with 6-(2-azidoacetamido)-6-deoxy-GalNAc 93 (5 mM) and TnGalNAcT (1.5 mg/mL) in 10 mM MnCl2 and 25 mM Tris-HCl pH 8.0 at 30° C. overnight. A sample of the reaction mixture (2 μL) was incubated for 1 hour at 37° C. with Fabricator™ (1.25 U/μL) in phosphate-buffered saline (PBS) pH 6.6 in a total volume of 10 μL.

The subject of data set [1] is core GlcNAc(Fuc) substituted trastuzumab. In words: Glycosyltransfer of 6-azido-GalNAc-UDP to trimmed trastuzumab under the action of GalNAcTs (mass spectral analysis). Type of data set: biochemical. Particulars: 6-azido-GalNAc-UDP 1 mM; for Conversions (%) of GlcNAc(Fuc) substituted trastuzumab into 6-azido-GalNAc-GlcNAc(Fuc)-substituted trastuzumab: trimmed trastuzumab 10 mg/mL; for product formation, mass spectral analysis of Fabricator-digested samples: both enzyme concentrations (0.2 or 0.5 mg/mL). On the procedure: (§1) Prior to mass spectral analysis, IgGs were either treated with DTT, which allows analysis of both light and heavy chain, or treated with Fabricator™ (commercially available from Genovis, Lund, Sweden), which allows analysis of the Fc/2 fragment. For analysis of both light and heavy chain, a solution of 20 μg (modified) IgG was incubated for 5 minutes at 37° C. with 100 mM DTT in a total volume of 4 μL. If present, azide-functionalities are reduced to amines under these conditions. For analysis of the Fc/2 fragment, a solution of 20 μg (modified) IgG was incubated for 1 hour at 37° C. with Fabricator™ (1.25 U/μL) in phosphate-buffered saline (PBS) pH 6.6 in a total volume of 10 μL. After reduction or Fabricator-digestion the samples were washed trice with milliQ using an Amicon Ultra-0.5, Ultracel-10 Membrane (Millipore) resulting in a final sample volume of approximately 40 μL. Next, the samples were analyzed by electrospray ionization time-of-flight (ESI-TOF) on a JEOL AccuTOF. Deconvoluted spectra were obtained using Magtran software.
Glycan trimming of trastuzumab was performed with endo S from Streptococcus pyogenes (commercially available from Genovis, Lund, Sweden). Thus, trastuzumab (10 mg/mL) was incubated with endo S (40 U/mL) in 25 mM Tris pH 8.0 for approximately 16 hours at 37° C. The deglycosylated IgG was concentrated and washed with 10 mM MnCl2 and 25 mM Tris-HCl pH 8.0 using an Amicon Ultra-0.5, Ultracel-10 Membrane (Millipore). […] The two peaks of heavy chain belonged to one major product (49496 Da, 90% of total heavy chain), resulting from core GlcNAc(Fuc) substituted trastuzumab, and a minor product (49351 Da, ±10% of total heavy chain), resulting from trimmed trastuzumab.
Incorporation of 6-azidoGalNAc was tested for CeGalNAcT(30-383) (identified by SEQ ID NO: 6), AsGalNAcT(30-383) (identified by SEQ ID NO: 7), TnGalNAcT(33-421) (identified by SEQ ID NO: 8) and DmGalNAcT(47-403) (identified by SEQ ID NO: 9), which were expressed and purified as described in example 5. Trimmed trastuzumab (10 mg/mL), obtained by endo S treatment of trastuzumab as described above, was incubated with 6-azido-GalNAc-UDP (1 mM, commercially available from GlycoHub) in 10 mM MnCl2 and 25 mM Tris-HCl pH 7.5 and either 0.2 or 0.5 mg/mL of one of the above mentioned GalNAcTs.

For data set [2] the following is noted: cited from earlier work.
Data set [3] concerns core GlcNAc(Fuc) substituted trastuzumab. In words: Glycosyltransfer of 6-azido-Gal-UDP to trimmed trastuzumab under the action of bovine β(1,4)-Gal-T1. Type of data set: biochemical. Conditions: 0.1 or 0.5 mg/mL enzyme; 6-azido-Gal-UDP 1 mM; 30 °C overnight. On the procedure: as §1
Glycan trimming of trastuzumab was performed with endo S from Streptococcus pyogenes (commercially available from Genovis, Lund, Sweden). Thus, trastuzumab (10 mg/mL) was incubated with endo S (40 U/mL) in 25 mM Tris pH 8.0 for approximately 16 hours at 37° C. […]

β-(1,4)-GalNAcT, sequence (Q9GUM2 whole entry): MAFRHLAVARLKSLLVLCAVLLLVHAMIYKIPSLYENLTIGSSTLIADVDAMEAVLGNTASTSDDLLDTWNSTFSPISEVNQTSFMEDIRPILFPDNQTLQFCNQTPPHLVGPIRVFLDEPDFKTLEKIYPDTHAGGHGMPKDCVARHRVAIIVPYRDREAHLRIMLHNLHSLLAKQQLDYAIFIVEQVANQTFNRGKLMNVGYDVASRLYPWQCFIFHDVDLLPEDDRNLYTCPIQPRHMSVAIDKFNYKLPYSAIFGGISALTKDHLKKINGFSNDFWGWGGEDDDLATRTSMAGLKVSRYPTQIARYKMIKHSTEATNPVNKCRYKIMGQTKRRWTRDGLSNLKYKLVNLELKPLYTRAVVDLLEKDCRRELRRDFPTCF

With `CC(=O)N[C@H]1[C@@H](OP(=O)(O)OP(=O)(O)OC[C@H]2O[C@@H](n3ccc(=O)[nH]c3=O)[C@H](O)[C@@H]2O)O[C@H](CO)[C@@H](O)[C@@H]1O` [UDP-GlcNAc], the transferase activity remains at β-(1,4)-GalNAcT was 0.7%.

In the case of `CC(=O)NC1C(OP(=O)(O)OP(=O)(O)OCC2OC(n3ccc(=O)[nH]c3=O)C(O)C2O)OC(CNC(=O)CN=[N+]=[N-])C(O)C1O` (stereo not drawn) [compound 93, 6-(2-azidoacetamido)-6-deoxy-GalNAc-UDP], in the data set on TnGalNAcT, the “conversion to the modified brentuximab product” value is recorded as 70%.

With `CC(=O)NC1C(OP(=O)(O)OP(=O)(O)OCC2OC(n3ccc(=O)[nH]c3=O)C(O)C2O)OC(CN)C(O)C1O` (stereo not drawn) [compound 94, 6-amino-6-deoxy-GalNAc-UDP], the “conversion to the modified brentuximab product” value with TnGalNAcT was “full conversion”.

Consider “CeGalNAcT (30-383): truncated Caenorhabditis elegans β-(1,4)-GalNAcT enzyme, amino acids 30-383 of SEQ ID NO: 2”, for which the “Conversions (%) of GlcNAc(Fuc) substituted trastuzumab into 6-azido-GalNAc-GlcNAc(Fuc)-substituted trastuzumab” value (“Conversions (%)” below) in data set [1] (0.2 mg/mL enzyme) and in data set [1] (0.5 mg/mL enzyme) was 0% in each case. Also, the “product formation, mass spectral analysis of Fabricator-digested samples” value in data set [1] is “no product formation”.

B1: β4GalT(Y289L,M344H): double mutant β-1,4-galactosyltransferase described by Ramakrishnan et al. (protein, UniProt P08037 1-402, looked up, variant Y289L M344H)
chain: MKFREPLLGGSAAMPGASLQRACRLLVAVCALHLGVTLVYYLAGRDLRRLPQLVGVHPPLQGSSHGAAAIGQPSGELRLRGVAPPPPLQNSSKPRSRAPSNLDAYSHPGPGPGPGSNLTSAPVPSTTTRSLTACPEESPLLVGPMLIEFNIPVDLKLVEQQNPKVKLGGRYTPMDCISPHKVAIIIPFRNRQEHLKYWLYYLHPILQRQQLDYGIYVINQAGESMFNRAKLLNVGFKEALKDYDYNCFVFSDVDLIPMNDHNTYRCFSQPRHISVAMDKFGFSLPYVQLFGGVSALSKQQFLSINGFPNNYWGWGGEDDDIYNRLAFRGMSVSRPNAVIGKCRHIRHSRDKKNEPNPQRFDRIAHTKETMLSDGLNSLTYMVLEVQRYPLYTKITVDIGTPS
B1: the “activity in the presence of Mg2+” value in data set [2] (Mg2+) is on record as 25-30%. In data set [2] (Mn2+), the “loss of Mn2+-dependent activity” value is reported as 98%.

B2: bovine β(1,4)-Gal-T1: bovine β(1,4)-galactosyltransferase, commercially available from Sigma Aldrich (protein)
chain: MKFREPLLGGSAAMPGASLQRACRLLVAVCALHLGVTLVYYLAGRDLRRLPQLVGVHPPLQGSSHGAAAIGQPSGELRLRGVAPPPPLQNSSKPRSRAPSNLDAYSHPGPGPGPGSNLTSAPVPSTTTRSLTACPEESPLLVGPMLIEFNIPVDLKLIEQQNPKVKLGGRYTPMDCISPHKVAIIILFRNRQEHLKYWLYYLHPMVQRQQLDYGIYVINQAGESMFNRAKLLNVGFKEALKDYDYNCFVFSDVDLIPMNDHNTYRCFSQPRHISVAMDKFGFSLPYVQLFGGVSALSKQQFLSINGFPNNYWGWGGEDDDIYNRLAFRGMSVSRPNAVIGKCRMIRHSRDKKNEPNPQRFDRIAHTKETMLSDGLNSLTYMVLEVQRYPLYTKITVDIGTPS
modifications: Bos Taurus GalT Y289L mutant
notes: bovine β(1,4)-galactosyltransferase, commercially available from Sigma Aldrich
For the molecule B2, in data set [3], the “product formation, mass spectral analysis of reduced samples” value is recorded as “no product formation”.

B3: TnGalNAcT (33-421): truncated Trichoplusia ni β-(1,4)-GalNAcT enzyme, amino acids 33-421 of SEQ ID NO: 4 (protein)
chain: SPLRTYLYTPLYNATQPTLRNVERLAANWPKKIPSNYIEDSEEYSIKNISLSNHTTRASVVHPPSSITETASKLDKNMTIQDGAFAMISPTPLLITKLMDSIKSYVTTEDGVKKAEAVVTLPLCDSMPPDLGPITLNKTELELEWVEKKFPEVEWGGRYSPPNCTARHRVAIIVPYRDRQQHLAIFLNHMHPFLMKQQIEYGIFIVEQEGNKDFNRAKLMNVGFVESQKLVAEGWQCFVFHDIDLLPLDTRNLYSCPRQPRHMSASIDKLHFKLPYEDIFGGVSAMTLEQFTRVNGFSNKYWGWGGEDDDMSYRLKKINYHIARYKMSIARYAMLDHKKSTPNPKRYQLLSQTSKTFQKDGLSTLEYELVQVVQYHLYTHILVNIDERS
modifications: TnGalNAcT(33-421)
As for B3, the “Conversions (%)” value in data set [1] (0.2 mg/mL enzyme) was 40%; in data set [1] (0.5 mg/mL enzyme) it was 60%. Moreover, the “product formation, mass spectral analysis of Fabricator-digested samples” value in data set [1] is reported as “partial conversion”.

B4: AsGalNAcT (30-383): truncated Ascaris sum β-(1,4)-GalNAcT enzyme, amino acids 30-383 of SEQ ID NO: 3 (protein)
chain: DYSFWSPAFIISAPKTLTTLQPFSQSTSTNDLAVSALESVEFSMLDNSSILHASDNWTNDELVMRAQNENLQLCPMTPPALVGPIKVWMDAPSFAELERLYPFLEPGGHGMPTACRARHRVAIVVPYRDRESHLRTFLHNLHSLLTKQQLDYAIFVVEQTANETFNRAKLMNVGYAEAIRLYDWRCFIFHDVDLLPEDDRNLYSCPDEPRHMSVAVDKFNYKLPYGSIFGGISALTREQFEGINGFSNDYWGWGGEDDDLSTRVTLAGYKISRYPAEIARYKMIKHNSEKKNPVNRCRYKLMSATKSRWRNDGLSSLSYDLISLGRLPLYTHIKVDLLEKQSRRYLRTHGFPTC
modifications: AsGalNAcT (30-383)
For the molecule B4, the entries for the “Conversions (%)” value in data set [1] (0.2 mg/mL enzyme) and in data set [1] (0.5 mg/mL enzyme) were 10% and 30%, respectively. Also, in data set [1], the “product formation, mass spectral analysis of Fabricator-digested samples” value was “partial conversion”.

B5: DmGalNAcT (47-403): truncated Drosophila melanogaster β-(1,4)-GalNAcT enzyme, amino acids 47-403 of SEQ ID NO: 5 (protein)
chain: HKYAHIYGNASSDGAGGSEASRLPASPLALSKDRERDQELNGGPNSTIRTVIATANFTSIPQDLTRFLLGTKKFLPPRQKSTSALLANCTDPDPRDGGPITPNTTLESLDVIEAELGPLLRPGGAFEPENCNAQHHVAIVVPFRDRYAHLLLFLRNIHPFLMKQRIAYRIFIVEQTNGKPFNRAAMMNIGYLEALKLYQWDCFIFHDVDLLPLDDRNLYNCPRQPRHMSVAIDTLNFRLPYRSIFGGVSAMTREHFQAVNGFSNSFFGWGGEDDDMSNRLKHANLFISRYPVNIARYKMLKHQKEKANPKRYENLQNGMSKIEQDGINSIKYSIYSIKQFPTFTWYLAELKNSERKS
modifications: DmGalNAcT (47-403)
With B5, the “Conversions (%)” value in data set [1] (0.2 mg/mL enzyme) and in data set [1] (0.5 mg/mL enzyme) was 0% each time. For the same molecule, the “product formation, mass spectral analysis of Fabricator-digested samples” value in data set [1] is reported as “no product formation”.
